The results in this text go back to the RNAGym collection of RNA variant scans (doi:10.1073/pnas.2313332121).

The labels stand for the following.
B1: TPR 5TU (parent)
chain: GGAUCUUCUCGAUCUAACAAAAAAGACAAAUCUGCCACAAAGCUUGAGAGCAUCUUCGGAUGCAGAGGCGGCAGCCUUCGGUGGCGCGAUAGCGCCAACGUUCUCAACUAUGACACGCAAAACGCGUGCUCCGUUGAAUGGAGUUUAUCAUG

Variants at the floor of the assay were thinned out.

In this data set the parent is B1. As to the kind of experiment: polymerase ribozyme fitness, log enrichment relative to wild type (log ratio); higher = more active; in vitro selection for triplet polymerase activity. An outline of the steps: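 Mutant libraries of both subunits of a heterodimeric triplet polymerase ribozyme were PCR-built, transcribed, and selected once in triplicate, with frozen incubation at −7 °C and capture of gel-excised extended constructs on streptavidin beads before RT-PCR. Illumina sequencing of input and output libraries was filtered to genotypes with ≥10 input reads and ≥1 read per output. Fitness is the logarithm of genotype enrichment over wild-type enrichment, using inverse-variance-weighted replicate averages. The logarithm is base 2.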
Turning to GGACCUUCUCGAUCCAACAAACAAGACAUAUCUGCCACAAAGGAGGAGAGCAUCUUUGUAUGCAGAGGCGGCAGCCUUCGGUGGCGCGAUAGUGCCAACGUUCUCAACUAUGACACGCAAAACGCGUGCUCCGUUGAAUGGAGUUUAUCAUG, the “polymerase ribozyme fitness (log ratio)” value was at most -4.2.
In the case of GGAUCUUCUCGAUCUAACAAAAAAGACAAAUCUGCCACAAAGCUUGAGAGCAUCUUCGGAUGCAGAGGCGGCAGCCUUCGGUGGCGCGAUAGCACCGACGUUCUCAACUAUGACACGCAAAACGCGUGCUCCGUUGAAUGGAGUUUAUCAUG, the “polymerase ribozyme fitness (log ratio)” value was -2.19.
The result for GGAUCUUCUCGAUCUAACAAAUAAGACAAAUCUGCCACAAAGCUUGAGAGCAUCUUCGGAUGCAGAGGCGGCAGCCUUCGGUGGCUCGAUAGCGCCAACGUUCUCAACUAUGACACGCAAAACGCGUGCUCCGUUGAAUGGAGUUUAUCAUG reads -1.05; that for GGAUCUUCUCGUUCUAACAAAAAAGACAAAUCUGCCACAAAGCUUGAGAGCAUCUUCGGAUGCAGAGGCGGCAGCCUUCGGUGGCGCGUUAGCUCCAACGUUCUCAAGUAUGACACGUACACCGCGUGCUCCGUUGCAUGGAGUUUAUCAUG, at most -4.2.
The result for GGAUCUUCUCGAUCUAACAAAAAAGACAAAUCUGCCAUAAAGCUUGAGAGCAUCUUCAGAUGCAGAGGCGGCAGCCUUCGGUGGCACGAUAGUGCAAACGUUCUCAACUAUGACACGCAAAACGCGUGCUACGUUGAAUGGAGUUUAUCAUG reads -2.97; that for GGGUCUUCUCGAUCUAACAAAAAAGACAAAUCUGCCACAAAGCUUGAGAGCACCUUCGGCUCCAGAGGCGGCAGCCUUCGGUGGCGCGAUGGCGCCAACGUUCCCAACUAUGACACGAAUAACGCGUGCUCCGGUGAAUGGAGUUUAUCAUG, at most -4.2.
For GGAUCUUCUCGAUCUAACAAAAAAGACAAAUCUGCCAUAAAGCUUGAGAGCAACUUCGGAAGCAGAGGCGGCAGCCUUCGGUGGCGCGAUAGCGCCAACGUUCUCAACUAUGACACGCAAAACGCGUGCUCCGUUGAAUGGAGUUUAUCAUG, the “polymerase ribozyme fitness (log ratio)” value was -1.44.
The result for GGAUCUUCUCGAUCUAACAAAAAAGACAAAUCUGCCACAAAGCUUGAUAGCCUCUUCGGAUGCAGAGGCGGCAGCCUUCGGUGGCGCGAUAGUGCCAACGUUCUCAACUAUGACACGCAAAACGCGUGCUCCGUUGAAUGGAGUUUAUCAUG reads -3.41; that for GGAUCUUCUCGAUCUAACAAAAAAGACAAAUCUGCCACAAAGCUUGAGCGCAUCUUCGGAUGCAGAGGUGGCAGCCUUCGGUGACGCGAUAGUGCUAACGUUCUCAACUAUGACACGCAAAACGCGUGGUCCGUUGAAUGGAGUUUACCAUG, at most -4.2.
For the variant GGAUCUUCUCGAUAUAACAAAAAAGACAAAUCUGCCACAAAGCUUGAGAGCAUCUUCGGAUGCAGAGGCGGCAGCCUUCGGUGGCGCGAUAGCGCCAACGUUCUCAACUAUGACAGGCAAAACGCGUGCUCCGUUGAAUGGAGUUUAUCAUG, the “polymerase ribozyme fitness (log ratio)” value is -0.826.
The result for GGAUCUUCUCGAUCUAACAAAAAAGACAAAUCUGCCACAAAGCUUGAGAGCAUCUUAGCGUGCAGAGGCGGCAGCCUUCGGUGGCGCGAUAGCGCCAACGUUCUCAACUAUGACACGCAAAACGCGUGCUCCGUUGAAUGGAGUUUAUCAUG reads 0.42; that for GGAUCUUCUCGAUCUAACAAAAAAGACAAAUCUGCCACAAAGCUUGAGAGCAUCUUCGGAUGCAGAGGCGGCAGCCUUCGGUGGCGCGAUAGCGCCAACGUUGUCAACUAUGACACGCAAAACGCGUGCACCGUUGAAUGGAGUUUAUCAUG, -4.04.
For the variant GGAUCUUCUCGAUCUAACAAAAAAGACAAAUCUGCCACAAGGCGUGAGAGCAUCUUCGGAUGCAGAGGCGGCAGACUUCGGUGGCGCGAUAACGCCAACGUACUCAACUAUGACACGCAAAACGCGUGCUCCGUUGAAUGGAGUUUACCAUG, the “polymerase ribozyme fitness (log ratio)” value was at most -4.2.
In the case of GGAUCUUCUCGAUCUUACAUAAAAGACAAAUCUGCCACAAAGCUUGAGAGCAUCUUCCGAUGCAGAGGCGGCAGCCUUCGGUGGCACGAUAGCGCCAACGUUCUCAACUAUGACACGCAAAACGCGUGCUCCGUUGAAUGGAGUUUAUCAUG it was -3.79; in that of GGAUCUUCUCGAUCUUACAAAAAAGACAAAUCUGCCACAAAGCUUGAGAGCAUCUUCGCAUGCAGAGGCGGCAGCCUUCGGUGGCGCGAUAGCGCCAACGUUCUCAACUAUGACACGCAAAACGCGUGCUCCGUUGAAUGGAGUUUAUCUUG, -0.494.
The result for GGAUCUUCUCGAUCUAACAAAAAAGACACAUCUGCCACAAAUCUUGAGAGCAUGUUCGGAUGCAGAGGCGGCAGCCUUCGGUGGCGCGAUAGGCCCAUCGUUCUCAACUAUGACACGCAAAACGCGUGCUCCGUUAAAUGGGGUUUAUCAUU reads at most -4.2; that for GGAUCUUCUCGAUCUAUCAAAAAAGACAAAUCUGCCACAGAGCUUGAGAGCAUCUUCGGAUGCAGAGGCGGCAGCCUUCGGUGGCGCGAUAGCCCCAACGUUCUCAACUAUGACACGCAAAACGCGUGCUCUGUUGAAUGGAGUUUAUCAUG, -4.03; that for GGAUCUUCUCGAUCUAACAAAAAAGACAAAUCUGCCACAAAGCUUGAGAGAAUCUUCGGAUGCAGAGGCGGCAGCCUUCGGUGGCGCGAUAGCCCCAACGUUCUCAACUAUGACACGCAAAACGCGUGCUCCGUUGAAUGGAGUUUAUCAUG, -1.47.
GGAUCAUCUCGAUCUAACAAAAAAGACAAAUCUGCCACAAAGCUUGAGAGCAUCUUCGGAUGCAGAGGCGGCAGCCUUCGGUGGCGCGAUAGCGCUAACGUUCUCAACUAUGACACGCAAAACGCGUGCUCCGUUGAAUGGAGUUUAUCAUG: the “polymerase ribozyme fitness (log ratio)” value is -0.0433.
For the variant GGAUCUUCUCGAUCUAACAAAAAAGACAAAUCUGCCAAAAAGCUUGAGAGCAUCUUCGGAUGCAGAGGCGGCAGCCUUCGGUGGCGCGAUAGCACCAACGUUCUCAACUAUGACACGCAAAACGCGUGCUCCGUUGAAUGGAGUUUAUCAUG, the “polymerase ribozyme fitness (log ratio)” value was -0.134.
As for GGAUCUUCUCGAUCUAACAAAAAAGACAAAUCUGCCACAAAGCUUGAGAGCAUCUUCGGAUGCAGAGGCGGCAGCCUUCGGUGGCGCGAUAGCGCCAACGUUCUUAACUAUGACACGCAGACCGCGUGCUCCGUUGAAUGGAGUUUAUCAUG, the “polymerase ribozyme fitness (log ratio)” value stood at 0.479.
In the case of GGAUCUUCUCGAUCAAACAUAAAAGACAAAUCUGCCACAAAGCUUGAGAGCAUCUUCGGAUGCAGAGGCGGCAGCCUUCGGUGGCGCGAUAGCGCCAACGUUCUCAACUAUGACACGCAAAACGCGUGCUCCGUUGAAUGGAGUUUAUCAUG it was -0.122; in that of GGAUCUUCUCGAUCUAACAAAAAAGACAAAUCUGCCACAAAGCUUGAGAGCAUCUCCGGAUGCAGAGGCGGCAGCCUUCGGUGGCGCGAUAGUGCCAACGUUCUCAACUAUGAGACGCGAAACGCGUGCUCCGUUGAAUGGAGUUUAUCAUG, -3.79.
In the case of GGAUCUUCUCGAUCUAACAAAAAAGACAAAUCUGCCACAAAGCUUGAGAGCAUCUUCGGAUGCAGAGGCGGCAGCCUUCGGUGGCGCGAUUGCGCCAGCGUGCUUAACUAUGACACGCAAAACGCGUGCUCCGUUGAAUGGAGUUUAUCAUG it was at most -4.2; in that of GGAUCUUCUCGAUCUAACAAAAAAGACAAAUCUGCCAGAAAGCUUGAGAGCAUCUUCGGAUGCAGAGGCGGCAGCCUUCGGUGGCGCGAUAGCGCAAACGUUCUCAACUAUGAUACGCAAAACGCGUGCUCCGUUGAAUGGAGUUUAUCAUG, -2.91; in that of GGAUCUUCUCGAUCUAACAAAAAAGACAAAUCUGCCAAAAAGCUUGAGAGCAUCUUCGGAUGCAGAGGCGGCAGCCUUCGGUGGCGCGAUGGCGCCAACGUUCUCAACUAUGACACGCAAAACGCGUGCUCCGUUGAAUGGAGUUUAUCAUG, -3.39.
Turning to GGAUCUUCUCGAUCUAACAAAAAAGACAAAUCUGCCACAAAGCUUGAGAGCAUCUUCGGAUGCAGAGGCGGCAGCCUUCGGUGGCGCGAUGGCGCCAACGUUCUCAACUAUGACACGCAAAACGCGUGCUCCGUUGAAUGGAGUUUAUCAUA, the “polymerase ribozyme fitness (log ratio)” value is -3.71.
In the case of GGAUCUUCUCGAUCUAACAAAAAAGACAAAUCUGCAACAAAGCUUGAGAGCAUCUUCGGAUGCAGAGGCGGCAGCCUUCGGUGGCGCGAUAGAGCCAACGUUCUGAACUAUGACACGCAAAACGAGUGCUCCGUUGAAUGGAGUUUAUCAUG it was at most -4.2; in that of GGAUCUUCUCGAUCUAACAACAAAGACAAAUCUGCCACAAAGCUUGAGCGCCGCUUCGGAUGCAGAGGCGGCAGCCUUCGGUGUCGCGAUAGCGUCAACGUUCUCAACUAUGACACGCAAAACGCGUGCUCCGUUGAAUGAAGUUUAUCAUG, at most -4.2.
In the case of GGAUCUUCUCGAUCUAACAAAAAAGACAAAUCUGCCACAAAGCUUGAGAGCAUCUUCCGAUGCAGAGGCGGCGGCCUUCGGUGGCGCGAUAGCGCCAACGCUCUCAACUAUGACACGCAAAACGGGUGCUCCGUUGAAUGGAGUUUAUCAUG it was -0.932; in that of GGAUCUUCUCGAUCUAACAAAAAAGGCAAAUCUGCCACAAAGCUUGAGAGCAUCUUCAGAUGCAGAGGCGGCAGCCUUCGGUGGCGCGAUAGCGCCAACGUUCUGAACUAUGACACCCAAAACGCGGGCUCCGUUGAAUGGAGUUUAUCAUG, at most -4.2; in that of GGAUCUUCUCGAUCUAACAAAAAAGACAAAUCUGCCACAAAGCUUGAGAGCAUCUUCGGAUGCAGAGGCGGCAGCCUUCGGUGGUGCGAUAGCGCGAACGUUCUCAACUAUGACACGCAAAACGCGUGCUCCGUCGAAUGGAGUUUAUCAUG, -2.57.
Consider GGAUCUUCUCGAUCUAACAAAAAAGACAAAUCUGCCACAAAGCUUGAGAGCAUCUUCGCAUGCAGAGGCGGCAGCCUUCGGUGGCGCGAUAGGGCCUACGUUCUCAACUAUGACACGCAAAACGCGCGCUCCGUUGGAUGGAGUUUAUCAUG, for which the “polymerase ribozyme fitness (log ratio)” value is at most -4.2.
Regarding GGAUCUUCUCGAUCUAACACAAAAGACAAAUCUGCCACAAAGCUUGAGAGCAUCUUCGGAUGCAGAGGCGGCAGCCUUCGGUCGCGCGAUAGCGCGAACGUUCUCAACUAUGACACGCAAAACGCGUGCUCCGUUGAAUGGAGUUUAUCAUG, the “polymerase ribozyme fitness (log ratio)” value was -1.83.
The result for GGAUCUUCUCGAUCUAACAUAAAAGACAAAUCUGCCACACAGCUUGAGAGCAUCUUCGGAUGCAGAGGCGGCAGCCUUCGGUGGCGCGAUAGCACCAACGUUCUCAACUAUGACUCGCCAAACGCGUGCUCCGUUGAAUGGAGUUUAUCAUG reads -3.89; that for GGAUCUUCUCGAUCUAACAUAAAAGACAAAUCUGCCACAAAGCUUGAGAGCAUAUUCGGAUGCAGUGGCGGCAGCCCUCGGUGGCGCGAUAGCGCCAACGUUCUCAACUAUGACAGGCAAAACGAGUGCUCCGUUGAAUGGAGUUUACCAUG, at most -4.2.
The result for GGAUCUUCUCGAUCUAACAAAAAGGAGGAAUAUGCCACAAAGCUUGAGAGCAUCAACGGAUGCAGAGGCGGCAGCAUUCGGUGGAGCGAUACCGCCAACGUUCUCAACUAUGACACGCAAAACGCGUGCGCCGUUGAAUGGAGUUUAUCAUG reads at most -4.2.
For the variant GGAUCGUCUCGAUCUAACAAAAAAGACAAAUCUGCCACAAAGCUUGAGAGAAUCUUCGGAUGCAGAGGCGGCAGCCUUCGGUCGCGCGAUAGCGCCAACGUUCUCAACUAUGACACGCAAAACGCGUGCUCCGUUGAAUGGAGUUUAUCAUG, the “polymerase ribozyme fitness (log ratio)” value is -2.97.
